Values belong to the molecule of their own block, whether it stands above or below them.
Columns and labels:
[1] = target: Scytonema hofmannii TnsB transposase (type V-K CRISPR-associated transposon) (Scytonema hofmannii (UTEX 2349)); assay: SEC-MALS; shTnsB mixed with the reconstituted strand-transfer complex (STC) DNA; the high MW peak at 358.7 kDa holds the STC DNA and shTnsB
[2] = target: Scytonema hofmannii TnsB transposase (type V-K CRISPR-associated transposon) (Scytonema hofmannii (UTEX 2349)); assay: cryo-EM structure; 40 uM shTnsB with 10 uM STC DNA in 50 mM HEPES pH 7.5, 300 mM NaCl, 5 mM MgCl2, 1 mM TCEP, 30 min at 37 C; post-catalytic strand-transfer complex, 2.46 A
shTnsB [3] = target: T1, shTnsB (Scytonema hofmannii UTEX 2349, UniProt PDB:8AA5_1 1-596); assay: EMSA; 5 mM MgCl2; four bands, three sites expected; 50 mM HEPES pH 7.5, 300 mM NaCl, 5 mM MgCl2, 1 mM TCEP, 37 °C, 30 min; 6% DNA retardation gel; conditions: protein: recombinant; tags: C-terminal His6 (TEV treatment, tag removed); chain copies: 4; blunt
T1 sequence: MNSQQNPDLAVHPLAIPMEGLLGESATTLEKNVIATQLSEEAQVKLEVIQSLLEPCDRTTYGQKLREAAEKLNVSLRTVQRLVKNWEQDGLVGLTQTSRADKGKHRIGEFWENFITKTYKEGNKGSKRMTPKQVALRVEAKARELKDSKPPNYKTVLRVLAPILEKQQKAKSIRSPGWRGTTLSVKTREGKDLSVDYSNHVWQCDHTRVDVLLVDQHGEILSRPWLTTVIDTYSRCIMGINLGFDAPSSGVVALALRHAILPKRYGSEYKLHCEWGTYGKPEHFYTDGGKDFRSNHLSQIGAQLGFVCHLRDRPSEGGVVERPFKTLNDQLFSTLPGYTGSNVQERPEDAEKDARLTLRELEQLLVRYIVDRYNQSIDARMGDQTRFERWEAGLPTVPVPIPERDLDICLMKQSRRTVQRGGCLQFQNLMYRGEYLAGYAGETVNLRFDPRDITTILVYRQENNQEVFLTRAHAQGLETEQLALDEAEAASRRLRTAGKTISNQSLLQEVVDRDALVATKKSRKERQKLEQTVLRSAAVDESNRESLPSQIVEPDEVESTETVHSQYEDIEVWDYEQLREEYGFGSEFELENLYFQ

shTnsB [4] = target: T1, shTnsB; assay: cryo-EM structure (2.4 Å); 5 mM MgCl2; TnsB tetramer; 50 mM HEPES pH 7.5, 300 mM NaCl, 5 mM MgCl2, 1 mM TCEP, 37 °C, 30 min; 6% DNA retardation gel; conditions: protein: recombinant; tags: C-terminal His6 (TEV treatment, tag removed); chain copies: 4; six strands: 1:2 1:3 (RE arm), 4:5 4:6 (LE arm); the arms pair through the 5 nt target between the insertion sites (1:4); 5' polyA overhangs on strands 2 and 5

- stoichiometry N [1]: 4
- stoichiometry N [2]: 4
Molecule: Scytonema hofmannii TnsB transposase (type V-K CRISPR-associated transposon) (enzyme)

B1: LE (dsDNA)
DNA 1: ATTATATTGATGACATTTAATTTGTCATCAATTAATTAAGCAACGCTGATGGGTCACGACGACAATTAAATAGTCACAATGACATTAATCTGTCACCGACGACAGATAATTTGTCACTGTACACTACGCCTTTTGTGG
DNA 2: CCACAAAAGGCGTAGTGTACAGTGACAAATTATCTGTCGTCGGTGACAGATTAATGTCATTGTGACTATTTAATTGTCGTCGTGACCCATCAGCGTTGCTTAATTAATTGATGACAAATTAAATGTCATCAATATAAT
- binding result (shTnsB [3]): binds

B2: STC DNA (RE_Target, RE_polyA, Target_1, LE_Target, LE_polyA, Target_2) (structured_DNA)
DNA 1: ATAAGGATTTTACTGATGACAATAATTTGTCACAACGACATATAATTAGTCACTGTACACGTAGAGACGTAGCAATGCT
DNA 2: AAAAAAAAAAAAAAATGTACAGTGACTAATTATATGTCGTTGTGACAAATTATTGTCATCAGTAAAATCCTTAT
DNA 3: AGCATTGCTACGTCT
DNA 4: AATTAAATAGTCACAATGACATTAATCTGTCACCGACGACAGATAATTTGTCACTGTACACTACGCCTTTTGTGGAGATG
DNA 5: AAAAAAAAAAAAAAATGTACAGTGACAAATTATCTGTCGTCGGTGACAGATTAATGTCATTGTGACTATTTAATT
DNA 6: CATCTCCACAAAAGG
- binding result (shTnsB [4]): binds

— publication PMC9527255, “Structure of the TnsB transposase-DNA complex of type V-K CRISPR-associated transposon”
